Assay [1] has as its target GST-β5cyto (GST fusion protein of the integrin β5 cytoplasmic domain) (UniProt P18084). Description: phage binding to coated microtiter wells; colonies from β5-GST wells divided by colonies from GST wells.
For assay [2] the target is unchanged. Description: phage binding to coated microtiter wells; colonies from β5-GST wells divided by colonies from BSA wells.
Assay [3] shares this target. Description: phage binding to β5 cytoplasmic domain wells; colonies with Fyn-phosphorylated phage divided by colonies with unphosphorylated phage.
Assay [4] has the same target. The assay can be described thus: phage binding to coated wells; β5 colonies divided by GST colonies.
Assay [5] has the same target. Description: phage binding to coated wells; β5 colonies divided by BSA colonies.
Assay [6] has as its target GST-β3cyto (GST fusion protein of the integrin β3 cytoplasmic domain) (UniProt P05106). Description: phage binding to β3 cytoplasmic domain wells; colonies with Fyn-phosphorylated phage divided by colonies with unphosphorylated phage.
For assay [7] the target is unchanged. Description: phage binding to coated wells; β3 colonies divided by BSA colonies.
Assay [8] shares this target. The assay can be described thus: phage binding to coated wells; β3 colonies divided by GST colonies.
For assay [9] the target is unchanged. Description: phage binding to coated microtiter wells; colonies from β3-GST wells divided by colonies from GST wells.
Assay [10] has the same target. The assay can be described thus: phage binding to coated microtiter wells; colonies from β3-GST wells divided by colonies from BSA wells.
The target of assay [11] is Aminopeptidase A (APA, EC 3.4.11.7) (UniProt Q07075 1-957, limits assumed). Description: cell-based or functional assay.
Assay [12] deals with T1, prohibitin (B cell receptor associated protein; prohibitin receptor protein complex) (mouse).
T1 sequence (P67778 2-272, looked up): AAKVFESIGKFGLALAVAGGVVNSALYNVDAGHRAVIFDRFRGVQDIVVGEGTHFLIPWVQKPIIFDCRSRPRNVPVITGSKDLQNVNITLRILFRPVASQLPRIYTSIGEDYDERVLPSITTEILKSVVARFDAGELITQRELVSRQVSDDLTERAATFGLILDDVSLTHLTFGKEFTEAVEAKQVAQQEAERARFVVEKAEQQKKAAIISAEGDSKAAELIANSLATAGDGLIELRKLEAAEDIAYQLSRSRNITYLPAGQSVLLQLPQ
Description: immunoprecipitation from mouse adipose tissue extract with peptide-(KLAKLAK)2 conjugates, SDS-PAGE (data not shown).

Bridge positions count the residues as written; N and C are the ends. Square brackets hold non-standard residues; d marks the D form. Ends that are not written are not given here. pY = N[C@@H](Cc1ccc(OP(=O)(O)O)cc1)C(=O)O

Sequence of GST-β3cyto (GST fusion protein of the integrin β3 cytoplasmic domain) (P05106 742-788): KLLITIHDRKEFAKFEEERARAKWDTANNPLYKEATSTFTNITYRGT
Sequence of GST-β5cyto (GST fusion protein of the integrin β5 cytoplasmic domain) (P18084 743-799): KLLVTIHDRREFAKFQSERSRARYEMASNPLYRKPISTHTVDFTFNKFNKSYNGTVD
Sequence of Aminopeptidase A (APA, EC 3.4.11.7) (Q07075 whole entry): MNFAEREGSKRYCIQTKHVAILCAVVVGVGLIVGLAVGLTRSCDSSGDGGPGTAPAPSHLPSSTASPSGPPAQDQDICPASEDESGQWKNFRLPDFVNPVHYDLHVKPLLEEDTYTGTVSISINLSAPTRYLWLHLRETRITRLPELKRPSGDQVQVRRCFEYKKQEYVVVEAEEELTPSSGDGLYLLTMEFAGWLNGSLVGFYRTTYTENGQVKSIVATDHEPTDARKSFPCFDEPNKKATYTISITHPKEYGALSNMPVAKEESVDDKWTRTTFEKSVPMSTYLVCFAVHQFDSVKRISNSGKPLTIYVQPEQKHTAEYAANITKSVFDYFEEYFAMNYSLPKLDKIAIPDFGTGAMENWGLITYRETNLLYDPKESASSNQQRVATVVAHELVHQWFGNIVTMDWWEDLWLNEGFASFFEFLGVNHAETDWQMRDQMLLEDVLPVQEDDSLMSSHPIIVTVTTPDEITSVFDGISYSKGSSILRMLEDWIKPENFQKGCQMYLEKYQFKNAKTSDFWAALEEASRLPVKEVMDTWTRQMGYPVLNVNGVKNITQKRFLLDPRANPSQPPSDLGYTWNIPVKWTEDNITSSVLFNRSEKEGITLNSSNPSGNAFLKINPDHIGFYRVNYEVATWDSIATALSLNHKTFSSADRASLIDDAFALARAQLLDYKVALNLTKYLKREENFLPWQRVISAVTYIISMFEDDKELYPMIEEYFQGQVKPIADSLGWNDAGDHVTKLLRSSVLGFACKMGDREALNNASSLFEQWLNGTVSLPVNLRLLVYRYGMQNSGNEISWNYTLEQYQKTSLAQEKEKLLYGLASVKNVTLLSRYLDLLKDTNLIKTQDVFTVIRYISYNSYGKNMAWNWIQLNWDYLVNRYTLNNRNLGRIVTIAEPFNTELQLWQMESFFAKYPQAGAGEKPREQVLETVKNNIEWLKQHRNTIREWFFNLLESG

Consider CKLWQEDGY (also: displayed on phage pIII) [phage displaying … (SEQ ID NO:42)], for which the β5/GST Ratio in [1] is 1.8. Also, the β5/BSA Ratio in assay [2] was 665.

In [3], TMLR[pY]TVRL (also: displayed on phage pIII) [Fyn-phosphorylated phage displaying … (SEQ ID NO:52)] displayed a Phos/Unphos of 14.3. This molecule also returned a β3 or β5/GST in assay [4] of 3.4. In addition, in assay [5], the β3 or β5/BSA amounted to 2.2.

Take RAIL[pY]RLAN (also: displayed on phage pIII) [Fyn-phosphorylated phage displaying … (SEQ ID NO:50)]: the Phos/Unphos in assay [6] worked out at 2.8. The β3 or β5/BSA in assay [7] was 20. In assay [8], this molecule showed a β3 or β5/GST of 1.3.

AGWLYMSWK [phage displaying … (SEQ ID NO:35)]: the β3/GST Ratio in assay [9] was 1.8. Further, in [10], the β3/BSA Ratio was found to be 2.4.

In assay [6], GGGS[pY]RHVE (also: displayed on phage pIII) [Fyn-phosphorylated phage displaying … (SEQ ID NO:49)] displayed a Phos/Unphos of 13.2. Moreover, the β3 or β5/BSA in assay [7] stood at 5.3. In assay [8], the β3 or β5/GST was 1.5.

In turn, MLLG[pY]RFEK (also: displayed on phage pIII) [Fyn-phosphorylated phage displaying … (SEQ ID NO:51)] registered a Phos/Unphos in assay [6] of 2.5. In addition, the β3 or β5/BSA in [7] amounted to 2.7. In addition, the β3 or β5/GST in assay [8] was determined as 3.5.

In [3], TMLR[pY]FMFP (also: displayed on phage pIII) [Fyn-phosphorylated phage displaying … (SEQ ID NO:53)] had a Phos/Unphos of 4.2. Also, in [4], the β3 or β5/GST came out at 2.3. In assay [5], this molecule displayed a β3 or β5/BSA of 3.8.

B1: soluble CPRECESIC (SEQ ID NO:56) peptide (peptide)
peptide: CPRECESIC
modifications: disulfide (positions not given here); not fully specified; also: mix of six MS peaks: possibly different disulfide positions and dimers
In the case of B1, the “IC50 for inhibition of APA enzyme activity (α-glutamyl-p-nitroanilide, SK-RC-49/APA cells)” value in [11] worked out at 800 µM.

For TLRK[pY]FHSS (also: displayed on phage pIII) [Fyn-phosphorylated phage displaying … (SEQ ID NO:54)], the Phos/Unphos in [3] is 3.8. The β3 or β5/GST in [4] stood at 3.8. For the same molecule, in assay [5], the β3 or β5/BSA stood at 15.2.

As to CKGGRAKDCGG[dK][dL][dA][dK][dL][dA][dK][dK][dL][dA][dK][dL][dA][dK] (disulfide 1-9) [… (SEQ ID NO:22) conjugated to (KLAKLAK)2 (SEQ ID NO:1)], the fold enrichment in the … precipitated fraction compared to the CARAC precipitated fraction in assay [12] was > 10 >fold.

(Values after patent US20060094672A1 (University of Texas, published 2006).)
